Assay [1] concerns the target Human FcRn (hFcRn), soluble α-chain/β2m heterodimer, P55899;P61769. In words: BLI (in vitro BLI-based FcRn platform). The conditions noted are these: parent: est. 270; read off a plot.
Assay [2] has as its target Human FcRn (hFcRn), soluble α-chain/β2m heterodimer (human) (UniProt P55899). In words: BLI. In general terms: In BLI a coated tip is dipped into the sample, and binding shifts an interference pattern.
For assay [3] the target is unchanged. As to the kind of experiment: BLI; hFcRn-loaded surface; human IgG1 as analyte, association at pH 6.0 and dissociation at pH 6.0.
Assay [4] shares this target. In words: BLI. This is another data set of the same source.
In assay [5] the target is CDA1 (actoxumab), human IgG1 monoclonal antibody (UniProt P01857). In words: biolayer interferometry (Octet QK, ForteBio). The conditions noted are these: 30°C, PBS (composition and salt concentration not stated), PBS adjusted to pH 6.0 with HCl for the acidic steps, PBS pH 7.5 for the physiological-pH steps.

Read-outs that look alike come from different tables or passages of the source.

Sequence of Human FcRn (hFcRn), soluble α-chain/β2m heterodimer (human) (P55899 34-290, chain 1 of 2): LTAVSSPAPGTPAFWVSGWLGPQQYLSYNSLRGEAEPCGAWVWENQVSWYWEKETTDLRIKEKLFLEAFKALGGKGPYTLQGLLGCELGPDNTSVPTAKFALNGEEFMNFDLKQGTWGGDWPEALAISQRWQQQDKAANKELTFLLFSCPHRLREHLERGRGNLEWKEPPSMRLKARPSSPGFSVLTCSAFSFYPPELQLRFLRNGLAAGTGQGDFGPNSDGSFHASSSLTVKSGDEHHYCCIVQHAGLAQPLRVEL
Sequence of Human FcRn (hFcRn), soluble α-chain/β2m heterodimer (human) (P61769 21-119, chain 2 of 2, further chain): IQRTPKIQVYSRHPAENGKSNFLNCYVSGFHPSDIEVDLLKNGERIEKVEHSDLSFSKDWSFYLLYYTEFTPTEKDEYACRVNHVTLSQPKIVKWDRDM

On to “HCV1, fully human IgG1 mAb HCV (with CDA VH CDRs and CDB Vk CDRs): VH CDR1-3 of HCV1 replaced by VH CDRs of CDA1; Vk CDR1-3 of HCV1 replaced by Vk CDRs of CDB1; residues not printed”, for which the other: Predicted Human t1/2, β in assay [1] was 27.1 days.
One may read the koff as a measure of how fast the partners let go of each other. Take “CDA1 (actoxumab), fully human IgG1 mAb (antibody)”: the koff in assay [2] came to 0.101 s⁻¹. Also, in assay [3], the fold slower off-rate at pH 6.0 than at pH 7.5 was determined as 5 fold. Besides, in assay [4], the fold change FcRn binding rate came out at 1.14 fold, the fold change of the association rate against RAB1 was determined as 1.09 fold, the fold change of the dissociation rate against CDB1 was determined as 1.18 fold and the koff was 0.0906 s⁻¹.
Turning to “soluble human neonatal Fc receptor (hFcRn; alpha-chain/beta2-microglobulin heterodimer)”, in assay [5] (pH 6.0), the “average association rate (apparent kon)” value is 0.2087 ± 0.0036 s⁻¹ and the “kon (apparent association rate)” value is 0.110 s⁻¹. For the same substance, in assay [5] (pH 7.5), the “average dissociation rate (koff)” value worked out at 0.0906 ± 0.0034 s⁻¹ and the koff came out at 0.101 s⁻¹.

Values taken from PMC4622054.
